Where “and” joins values, the source holds several entries; their conditions need not be identical. Identical values can stand only once.

The target of data set [1] is At-His-cpSRP43, fluorescently labeled (Arabidopsis thaliana) (UniProt O22265). Kind of data set: MST; labeled cpSRP43 (20 nM) or eGFP-Cg-43 (75 nM) constant, cpSRP54 constructs titrated; 300 mM NaCl, 2.7 mM KCl, 10 mM Na2HPO4, 1.8 mM K2HPO4, 5 mM MgCl2, 2 mM DTT, 0.05% Tween20, pH 7.3; Monolith NT.115, MST power 20%, LED power 20%.
Data set [2] addresses Chaetosphaeridium globosum cpSRP43(D189Y) (Chaetosphaeridium globosum). The description is as above.
The target in data set [3] is Cg-His-eGFP-cpSRP43 (Chaetosphaeridium globosum). The data set is described as above.
In data set [4] the test system is Pp-cpSRP54-His (Physcomitrella patens). Kind of data set: MST. Particulars: 5 mM Mg2+, MST: 300 mM NaCl, 2.7 mM KCl, 10 mM Na2HPO4, 1.8 mM K2HPO4, 5 mM MgCl2, 2 mM DTT, 0.05% Tween20, pH 7.3, labeled Pp-cpSRP54 10-20 nM, temperature not stated ….
For data set [5], the target named is Pp-His-cpSRP43, fluorescently labeled (Physcomitrella patens). The experiment in a line: MST; labeled cpSRP43 (20 nM) or eGFP-Cg-43 (75 nM) constant, cpSRP54 constructs titrated; 300 mM NaCl, 2.7 mM KCl, 10 mM Na2HPO4, 1.8 mM K2HPO4, 5 mM MgCl2, 2 mM DTT, 0.05% Tween20, pH 7.3; Monolith NT.115, MST power 20%, LED power 20%.
Data set [6] addresses T1, At-His-cpSRP54 (Arabidopsis thaliana, UniProt P37107 76-564).
T1 construct: cpSRP54 of Arabidopsis thaliana; the results call it 'full-length' as against the M-domain; also called At-His-54; At-54; source: E. coli BL21(DE3) or Rosetta2(DE3), purified (Ni-NTA, desalted); not shown: His tag, N-terminal, kept
T1 sequence (looked up): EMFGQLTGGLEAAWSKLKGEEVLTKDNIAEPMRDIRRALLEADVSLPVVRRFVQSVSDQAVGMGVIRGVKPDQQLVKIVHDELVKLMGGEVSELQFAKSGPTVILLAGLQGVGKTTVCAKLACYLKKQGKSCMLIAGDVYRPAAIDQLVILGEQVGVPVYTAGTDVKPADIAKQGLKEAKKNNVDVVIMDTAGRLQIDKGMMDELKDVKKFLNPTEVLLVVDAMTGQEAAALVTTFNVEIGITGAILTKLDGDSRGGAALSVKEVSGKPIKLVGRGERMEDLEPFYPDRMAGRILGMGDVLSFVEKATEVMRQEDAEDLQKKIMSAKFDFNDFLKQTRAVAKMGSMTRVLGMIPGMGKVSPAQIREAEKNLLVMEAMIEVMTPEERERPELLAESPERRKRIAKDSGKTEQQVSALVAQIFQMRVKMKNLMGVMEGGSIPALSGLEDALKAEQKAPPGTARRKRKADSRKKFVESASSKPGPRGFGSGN
The description is as above. The note with it: both partners purified.

The target in data set [7] is T1, At-His-cpSRP54. The experiment in a line: pull-down; GST-cpSRP43 constructs on glutathione-sepharose, 20 μg of GST- and His-fusion constructs; eluates by SDS-PAGE and Coomassie staining. Particulars: both partners purified.

Take At-His-cpSRP54M (domain or fragment): the dissociation constant Kd in data set [1] was 60 nM and 90 nM. As to Cg-His-cpSRP54M (domain or fragment), the Kd in data set [2] was 10 µM and 11 µM; in data set [3], 11 µM. Take Ec-SRP RNA: the Kd in data set [4] (one of two replicate values) is 17 nM and 27 nM. In turn, Ot-cpSRP RNA gave a dissociation constant Kd in data set [4] of 185 nM. Pp-cpSRP54-His (natural protein) gave a dissociation constant (Kd) in data set [5] of 9 µM. In data set [4], Pp-cpSRP RNA showed an equilibrium dissociation constant (Kd) of 1300 nM.

B1: At-His-cpSRP43, fluorescently labeled (natural protein, Arabidopsis thaliana, UniProt O22265 57-373, looked up)
chain: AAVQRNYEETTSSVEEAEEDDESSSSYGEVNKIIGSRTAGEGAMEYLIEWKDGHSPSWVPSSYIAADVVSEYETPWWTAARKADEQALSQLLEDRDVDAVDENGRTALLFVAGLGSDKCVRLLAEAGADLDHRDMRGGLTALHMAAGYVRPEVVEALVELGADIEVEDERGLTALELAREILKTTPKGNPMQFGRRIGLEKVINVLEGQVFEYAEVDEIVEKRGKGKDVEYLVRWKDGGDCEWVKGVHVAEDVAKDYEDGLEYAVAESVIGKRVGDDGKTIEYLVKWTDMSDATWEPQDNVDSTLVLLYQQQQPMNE
modifications: fluorescent label on amines (Monolith NT.115 Protein Labeling Kit RED-NHS)
notes: cpSRP43 of Arabidopsis thaliana; the results speak of the 'full-length Arabidopsis thaliana cpSRP subunits'; the construct is not described among the plasmids; also called Ath-His-cpSRP43; At-43; source: E. coli BL21(DE3) or Rosetta2(DE3), purified (Ni-NTA, desalted); not shown: His tag, N-terminal, kept
Regarding B1, the Kd with At-His-cpSRP54 [6] is 50 nM and 60 nM.

B2: At-GST-cpSRP43 (natural protein, Arabidopsis thaliana, UniProt O22265 57-373, looked up)
chain: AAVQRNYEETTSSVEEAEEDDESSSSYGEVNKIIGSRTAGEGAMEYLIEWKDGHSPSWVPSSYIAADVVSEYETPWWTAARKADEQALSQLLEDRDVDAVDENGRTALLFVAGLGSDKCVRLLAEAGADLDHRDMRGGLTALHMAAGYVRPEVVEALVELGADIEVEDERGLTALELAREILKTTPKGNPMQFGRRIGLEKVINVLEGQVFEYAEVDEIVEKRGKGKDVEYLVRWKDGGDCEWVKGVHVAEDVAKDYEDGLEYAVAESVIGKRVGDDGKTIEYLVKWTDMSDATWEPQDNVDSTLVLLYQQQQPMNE
notes: cpSRP43 of Arabidopsis thaliana in pGEX4T3; also called At-GST-43; GST-cpSRP43 from Arabidopsis thaliana; source: E. coli BL21(DE3) or Rosetta2(DE3), purified (glutathione-sepharose); not shown: GST, N-terminal, kept
As to B2, in the data set with At-His-cpSRP54 [7], the binding result is listed as “binds”.

B3: At-GST-cpSRP43(Y269E) (natural protein, Arabidopsis thaliana, UniProt O22265 57-373, looked up)
chain: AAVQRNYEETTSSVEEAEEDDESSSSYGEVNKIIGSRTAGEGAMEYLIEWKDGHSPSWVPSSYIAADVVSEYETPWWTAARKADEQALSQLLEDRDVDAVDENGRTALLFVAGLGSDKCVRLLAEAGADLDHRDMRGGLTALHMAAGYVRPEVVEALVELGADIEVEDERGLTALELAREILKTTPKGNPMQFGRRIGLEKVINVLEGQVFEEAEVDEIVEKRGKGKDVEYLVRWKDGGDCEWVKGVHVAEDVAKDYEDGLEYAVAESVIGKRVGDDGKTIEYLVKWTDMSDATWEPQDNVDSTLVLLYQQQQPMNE
notes: cpSRP43 of Arabidopsis thaliana in pGEX4T3, with Y269E; made from the construct of m9; also called pGEX4T3-At-GST-cpSRP43(Y269E); source: E. coli BL21(DE3) or Rosetta2(DE3), purified (glutathione-sepharose); not shown: GST, N-terminal, kept
As for B3, in the data set with At-His-cpSRP54 [7], the binding result is on record as “binds”.

B4: At-GST-cpSRP43(Y269D) (natural protein, Arabidopsis thaliana, UniProt O22265 57-373, looked up)
chain: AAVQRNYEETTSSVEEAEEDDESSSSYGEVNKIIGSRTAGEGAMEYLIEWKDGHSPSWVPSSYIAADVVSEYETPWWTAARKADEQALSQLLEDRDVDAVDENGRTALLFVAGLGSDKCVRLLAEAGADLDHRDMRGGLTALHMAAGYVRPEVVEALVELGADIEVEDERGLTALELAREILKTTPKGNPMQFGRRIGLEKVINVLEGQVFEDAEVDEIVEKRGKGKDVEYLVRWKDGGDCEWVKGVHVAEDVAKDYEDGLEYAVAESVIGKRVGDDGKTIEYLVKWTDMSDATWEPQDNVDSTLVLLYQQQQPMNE
notes: cpSRP43 of Arabidopsis thaliana in pGEX4T3, with Y269D; made from the construct of m9; also called pGEX4T3-At-GST-cpSRP43(Y269D); source: E. coli BL21(DE3) or Rosetta2(DE3), purified (glutathione-sepharose); not shown: GST, N-terminal, kept
B4: the binding result with At-His-cpSRP54 [7] is given as “binds”.

Usually Kd stands for the concentration at which binding is half-saturated. Low values mean higher affinity, high ones lower affinity.

The values above are taken from paper PMC5115805, “The Chloroplast SRP Systems of Chaetosphaeridium globosum and Physcomitrella patens as Intermediates in the Evolution of SRP-Dependent Protein Transport in Higher Plants” (PLoS ONE, 2016).
